According to patent publication US20240301041A1:

What was measured:
[1] = target: Protein A on the surface of S. aureus Newman wild-type (Staphylococcus aureus (strain Newman)) (UniProt P38507); assay: ELISA, coated S. aureus Newman, antibody 6.03E-10 M
[2] = target: IgG binding protein (Protein A homolog SpsQ/SpsP) on S. pseudintermedius AHDRCC 98200 (Staphylococcus pseudintermedius); assay: ELISA, coated S. pseudintermedius 98200, antibody 1.47E-13 M
[3] = target: Protein A on the surface of S. aureus Newman wild-type (Staphylococcus aureus (strain Newman)) (UniProt P38507); assay: ELISA, coated S. aureus Newman, antibody 3.09E-07 M
[4] = target: IgG binding protein (Protein A homolog SpsQ/SpsP) on S. intermedius 27369 (Staphylococcus intermedius); assay: ELISA, coated S. intermedius 27369, antibody 4.82E-09 M
[5] = target: IgG binding protein (Protein A homolog SpsQ/SpsP) on MRSP S. pseudintermedius 88493 (Staphylococcus pseudintermedius); assay: ELISA, coated S. pseudintermedius 88493, antibody 9.42E-12 M
[6] = target: IgG binding protein (Protein A homolog SpsQ/SpsP) on S. pseudintermedius AHDRCC 98200 (Staphylococcus pseudintermedius); assay: ELISA, coated S. pseudintermedius 98200, antibody 6.03E-10 M
[7] = target: IgG binding protein (Protein A homolog SpsQ/SpsP) on S. pseudintermedius AHDRCC 98200 (Staphylococcus pseudintermedius); assay: ELISA, coated S. pseudintermedius 98200, antibody 1.18E-12 M
[8] = target: IgG binding protein (Protein A homolog SpsQ/SpsP) on MRSP S. pseudintermedius 88493 (Staphylococcus pseudintermedius); assay: ELISA, coated S. pseudintermedius 88493, antibody 4.82E-09 M
[9] = target: IgG binding protein (Protein A homolog SpsQ/SpsP) on MRSP S. pseudintermedius 88493 (Staphylococcus pseudintermedius); assay: ELISA, coated S. pseudintermedius 88493, antibody 1.47E-13 M
[10] = target: IgG binding protein (Protein A homolog SpsQ/SpsP) on S. intermedius 27369 (Staphylococcus intermedius); assay: ELISA, coated S. intermedius 27369, antibody 7.54E-11 M
[11] = target: IgG binding protein (Protein A homolog SpsQ/SpsP) on S. intermedius 27369 (Staphylococcus intermedius); assay: ELISA, coated S. intermedius 27369, antibody 6.03E-10 M
[12] = target: IgG binding protein (Protein A homolog SpsQ/SpsP) on S. intermedius 27369 (Staphylococcus intermedius); assay: ELISA, coated S. intermedius 27369, antibody 3.09E-07 M
[13] = target: Protein A on the surface of S. aureus Newman wild-type (Staphylococcus aureus (strain Newman)) (UniProt P38507); assay: ELISA, coated S. aureus Newman, antibody 3.86E-08 M
[14] = target: IgG binding protein (Protein A homolog SpsQ/SpsP) on MRSP S. pseudintermedius 88493 (Staphylococcus pseudintermedius); assay: ELISA, coated S. pseudintermedius 88493, antibody 7.54E-11 M
[15] = target: IgG binding protein (Protein A homolog SpsQ/SpsP) on S. intermedius 27369 (Staphylococcus intermedius); assay: ELISA, coated S. intermedius 27369, antibody 9.42E-12 M
[16] = target: Protein A on the surface of S. aureus Newman wild-type (Staphylococcus aureus (strain Newman)) (UniProt P38507); assay: ELISA, coated S. aureus Newman, antibody 1.18E-12 M
[17] = target: IgG binding protein (Protein A homolog SpsQ/SpsP) on S. pseudintermedius AHDRCC 98200 (Staphylococcus pseudintermedius); assay: ELISA, coated S. pseudintermedius 98200, antibody 4.82E-09 M
[18] = target: IgG binding protein (Protein A homolog SpsQ/SpsP) on MRSP S. pseudintermedius 88493 (Staphylococcus pseudintermedius); assay: ELISA, coated S. pseudintermedius 88493, antibody 3.09E-07 M
[19] = target: IgG binding protein (Protein A homolog SpsQ/SpsP) on S. pseudintermedius AHDRCC 98200 (Staphylococcus pseudintermedius); assay: ELISA, coated S. pseudintermedius 98200, antibody 7.54E-11 M
[20] = target: Protein A on the surface of S. aureus Newman wild-type (Staphylococcus aureus (strain Newman)) (UniProt P38507); assay: ELISA, coated S. aureus Newman, antibody 4.82E-09 M
[21] = target: IgG binding protein (Protein A homolog SpsQ/SpsP) on S. pseudintermedius AHDRCC 98200 (Staphylococcus pseudintermedius); assay: ELISA, coated S. pseudintermedius 98200, antibody 3.09E-07 M
[22] = target: Protein A on the surface of S. aureus Newman wild-type (Staphylococcus aureus (strain Newman)) (UniProt P38507); assay: ELISA, coated S. aureus Newman, antibody 7.54E-11 M
[23] = target: IgG binding protein (Protein A homolog SpsQ/SpsP) on S. intermedius 27369 (Staphylococcus intermedius); assay: ELISA, coated S. intermedius 27369, antibody 1.47E-13 M
[24] = target: IgG binding protein (Protein A homolog SpsQ/SpsP) on MRSP S. pseudintermedius 88493 (Staphylococcus pseudintermedius); assay: ELISA, coated S. pseudintermedius 88493, antibody 6.03E-10 M
[25] = target: IgG binding protein (Protein A homolog SpsQ/SpsP) on S. pseudintermedius AHDRCC 98200 (Staphylococcus pseudintermedius); assay: ELISA, coated S. pseudintermedius 98200, antibody 9.42E-12 M
[26] = target: Protein A on the surface of S. aureus Newman wild-type (Staphylococcus aureus (strain Newman)) (UniProt P38507); assay: ELISA, coated S. aureus Newman, antibody 1.47E-13 M
[27] = target: IgG binding protein (Protein A homolog SpsQ/SpsP) on MRSP S. pseudintermedius 88493 (Staphylococcus pseudintermedius); assay: ELISA, coated S. pseudintermedius 88493, antibody 3.86E-08 M
[28] = target: IgG binding protein (Protein A homolog SpsQ/SpsP) on S. intermedius 27369 (Staphylococcus intermedius); assay: ELISA, coated S. intermedius 27369, antibody 1.18E-12 M
[29] = target: IgG binding protein (Protein A homolog SpsQ/SpsP) on S. intermedius 27369 (Staphylococcus intermedius); assay: ELISA, coated S. intermedius 27369, antibody 3.86E-08 M
[30] = target: Protein A on the surface of S. aureus Newman wild-type (Staphylococcus aureus (strain Newman)) (UniProt P38507); assay: ELISA, coated S. aureus Newman, antibody 9.42E-12 M
[31] = target: IgG binding protein (Protein A homolog SpsQ/SpsP) on S. pseudintermedius AHDRCC 98200 (Staphylococcus pseudintermedius); assay: ELISA, coated S. pseudintermedius 98200, antibody 3.86E-08 M
[32] = target: IgG binding protein (Protein A homolog SpsQ/SpsP) on MRSP S. pseudintermedius 88493 (Staphylococcus pseudintermedius); assay: ELISA, coated S. pseudintermedius 88493, antibody 1.18E-12 M
[33] = target: IgG binding protein (Protein A homolog SpsQ/SpsP) on S. intermedius 27369 (Staphylococcus intermedius); assay: cell-based or functional assay
[34] = target: IgG binding protein (Protein A homolog SpsQ/SpsP) on S. pseudintermedius AHDRCC 98200 (Staphylococcus pseudintermedius); assay: cell-based or functional assay
[35] = target: Protein A on the surface of S. aureus Newman wild-type (Staphylococcus aureus (strain Newman)) (UniProt P38507); assay: cell-based or functional assay

Question: How did the ELISA luminescent signal [1] turn out when hIgG1 control (REGN1932) (antibody) was run?
Answer: 509000

Question: What about the ELISA luminescent signal [2] of the same substance?
Answer: 1480

Question: What about the ELISA luminescent signal [3] of the same substance?
Answer: 506000

Question: What about the ELISA luminescent signal [4] of the same substance?
Answer: 42100

Question: And the ELISA luminescent signal [5]?
Answer: 7980

Question: And the ELISA luminescent signal [6]?
Answer: 4770

Question: What about the ELISA luminescent signal [7] of the same substance?
Answer: 2830

Question: What about the ELISA luminescent signal [8] of the same substance?
Answer: 8950

Question: What about the ELISA luminescent signal [9] of the same substance?
Answer: 8190

Question: What about the ELISA luminescent signal [10] of the same substance?
Answer: 2680

Question: What about the ELISA luminescent signal [11] of the same substance?
Answer: 5300

Question: What about the ELISA luminescent signal [12] of the same substance?
Answer: 123000

Question: What about the ELISA luminescent signal [13] of the same substance?
Answer: 434000

Question: And the ELISA luminescent signal [14]?
Answer: 7560

Question: And the ELISA luminescent signal [15]?
Answer: 1610

Question: What about the ELISA luminescent signal [16] of the same substance?
Answer: 30200

Question: What about the ELISA luminescent signal [17] of the same substance?
Answer: 8040

Question: What about the ELISA luminescent signal [18] of the same substance?
Answer: 43900

Question: What about the ELISA luminescent signal [19] of the same substance?
Answer: 2590

Question: And the ELISA luminescent signal [20]?
Answer: 652000

Question: And the ELISA luminescent signal [21]?
Answer: 132000

Question: And the ELISA luminescent signal [22]?
Answer: 253000

Question: What about the ELISA luminescent signal [23] of the same substance?
Answer: 25300

Question: What about the ELISA luminescent signal [24] of the same substance?
Answer: 11000

Question: And the ELISA luminescent signal [25]?
Answer: 1460

Question: And the ELISA luminescent signal [26]?
Answer: 18600

Question: And the ELISA luminescent signal [27]?
Answer: 14500

Question: And the ELISA luminescent signal [28]?
Answer: 9740

Question: What about the ELISA luminescent signal [29] of the same substance?
Answer: 34800

Question: What about the ELISA luminescent signal [30] of the same substance?
Answer: 72500

Question: What about the ELISA luminescent signal [31] of the same substance?
Answer: 36400

Question: And the ELISA luminescent signal [32]?
Answer: 8920

Question: Which ELISA luminescent signal [1] does the source give for hIgG1*/* control (REGN4440) (antibody) here?
Answer: 27500

Question: What about the ELISA luminescent signal [2] of the same substance?
Answer: 1120

Question: What about the ELISA luminescent signal [3] of the same substance?
Answer: 38800

Question: And the ELISA luminescent signal [4]?
Answer: 2490

Question: What about the ELISA luminescent signal [5] of the same substance?
Answer: 6150

Question: And the ELISA luminescent signal [6]?
Answer: 2760

Question: And the ELISA luminescent signal [7]?
Answer: 2170

Question: What about the ELISA luminescent signal [8] of the same substance?
Answer: 7360

Question: And the ELISA luminescent signal [9]?
Answer: 12300

Question: And the ELISA luminescent signal [10]?
Answer: 2510

Question: What about the ELISA luminescent signal [11] of the same substance?
Answer: 3010

Question: What about the ELISA luminescent signal [12] of the same substance?
Answer: 11100

Question: And the ELISA luminescent signal [13]?
Answer: 27600

Question: And the ELISA luminescent signal [14]?
Answer: 6370

Question: And the median cfu/mL after 16 h in 50% normal human serum, mAb 270 ug/mL [33]?
Answer: 8e+06 cfu/mL

Question: What about the median cfu/mL after 16 h in 50% normal human serum, mAb 270 ug/mL [34] of the same substance?
Answer: 7.5e+06 cfu/mL

Question: And the median cfu/mL after 16 h in 50% normal human serum, mAb 270 ug/mL [35]?
Answer: 7e+06 cfu/mL

Question: And the ELISA luminescent signal [15]?
Answer: 775

Question: What about the ELISA luminescent signal [16] of the same substance?
Answer: 17100

Question: What about the ELISA luminescent signal [17] of the same substance?
Answer: 2410

Question: And the ELISA luminescent signal [18]?
Answer: 14700

Question: What about the ELISA luminescent signal [19] of the same substance?
Answer: 2240

Question: What about the ELISA luminescent signal [20] of the same substance?
Answer: 19400

Question: What about the ELISA luminescent signal [21] of the same substance?
Answer: 15200

Question: And the ELISA luminescent signal [22]?
Answer: 24400

Question: What about the ELISA luminescent signal [23] of the same substance?
Answer: 896

Question: What about the ELISA luminescent signal [24] of the same substance?
Answer: 7080

Question: What about the ELISA luminescent signal [25] of the same substance?
Answer: 1170

Question: And the ELISA luminescent signal [26]?
Answer: 15500

Question: What about the ELISA luminescent signal [27] of the same substance?
Answer: 6470

Question: What about the ELISA luminescent signal [28] of the same substance?
Answer: 2210

Question: And the ELISA luminescent signal [29]?
Answer: 3850

Question: What about the ELISA luminescent signal [30] of the same substance?
Answer: 16700

Question: What about the ELISA luminescent signal [31] of the same substance?
Answer: 5100

Question: And the ELISA luminescent signal [32]?
Answer: 6710
